# Biological target: NLS-PpsR2-VP16 (Rhodopseudomonas palustris; H. simplex)
# Experiment: cell-based or functional assay
substance,measurement,value
BphP1-mCherry-TetR (from UniProt P04483 1-207),"EGFP signal, illuminated over dark-treated cells (pTRE-Tight-EGFP reporter, flow cytometry)",> 27 fold
same,Rluc8 activation with 740 nm light against 470 nm light in cultured HeLa cells,18 fold
same,"Rluc8 light-to-dark signal ratio in mouse liver after hydrodynamic transfection (pKA-207I10), 48 h",5.7 fold
same,"Rluc8 signal, 740 nm illuminated mice over mice in darkness, HeLa cells injected subcutaneously, 48 h",32 fold
same,"SEAP level, 740 nm light over darkness, after 12 h",3 fold
same,"SEAP level, 740 nm light over darkness, after 48 h (pTRE-Tight-SEAP reporter, HeLa)",40 fold
same,"SEAP reporter expression against the PhyB-PIF6 system, same reporter plasmid",2 fold
same,"decrease of SEAP production by 12 h of 636 nm light after 12 h of 740 nm light, against cells kept in darkness",2.3 fold
same,half-time of SEAP accumulation under 740 nm light,18 h
same,"rate of SEAP decrease in darkness after 636 nm illumination, against darkness alone",2 fold
